Experimental data taken from article PMC3216659 (Molecular Biology of the Cell, 2011).

B1: MBP–Duo1 complex (complex, S. cerevisiae)
chain 1: MSEDKAKLGTTRSATEYRLSIGSAPTSRRSSMGESSSLMKFADQEGLTSSVGEYNENTIQQLLLPKIRELSDSIITLDSNFTRLNFIHESLADLNESLGSLLYGIMSNSWCVEFSQAPHDIQDDLIAIKQLKSLEDEKNNLVMELSNMERGIKRKKDEQGENDLAKASQNKQFNQPLFPSSQVRKYRSYDNRDKRKPSKIGNNLQVENEEDYEDDTSSEASFVLNPTNIGMSKSSQGHVTKTTRLNNNTNSKLRRKSILHTIRNSIASGADLPIENDNVVNLGDLHPNNRISLGSGAARVVNGPVTKNRNSMFSGRAERKPTESRHSVAKKTEKKINTRPPFR
chain 2: MSEQSQLDDSTIDKLIPQIFNEMRSNLNNTTNKFPKSTGGGASDNISANSNSIRSFNSITTQSLLKESESLDKITAMIKNVTAALKNNLPVYVNQVHEVCKSTNSILDSWINIHSQAGYIHKLMSDQTYLKLINDRLHNENVNTNDEDGSTLHNVIALKKKEILDLRQKLENRKGEKDAAPAKPPNQGLNPRYGVQSGRRPVPSAGISNNGRVRKTHVPASKRPSGIPRVTNRWTKPTASSSRKMFR
chain 3: MDSASKEETLEKLDQEITVNLQKIDSNLSFCFHKITQDIIPHVATYSEICERIMDSTEWLGTMFQETGLVNLQANAAAPVGNAPVKSLVSNNVGIFPTSAEEASRQSQTDNGPNEADSAVHVNRDVHSMFNNDSIDDFHTANITSTGQILKLPDSSDEDTGSEAVPSREQTDLTGEGHGGADDEQDESTIQRQSRKRKISLLLQQQYGSSSSMVPSPIVPNKMRKQLAHEEHINNDGDNDDENSNNIESSPLKQGHHHPKGQADDNNEGPDEEESTKEVPKPGTIIHFSTNR
chain 4: MGESLDRCIDDINRAVDSMSTLYFKPPGIFHNAILQGASNKASIRKDITRLIKDCNHDEAYLLFKVNPEKQSVSRRDGKEGVFDYVIKRDTDMKRNRRLGRPGEKPIIHVPKEVYLNKDRLDLNNKRRRTATTSGGGLNGFIFDTDLIGSSVISNSSSGTFKALSAVFKDDPQIQRLLYALENGSVLMEEESNNQRRKTIFVEDFPTDLILKVMAEVTDLWPLTEFKQDYDQLYHNYEQLSSKLRFIKKEVLLQDDRLKTMSQYHPSSSHDVAKIIRKEKDEIRRLEMEIANLQE
chain 5: MTDALEQSVLALEGTVSVLKDSVESLKCANEPSTNLASTMLQTKRVFRLVPEYDVERSKLDLIEEVEPLVRTLGDKLRKSMGRMQRELDTLQQTYELNDLRLKKNISMDDDDALNSPDMGQEYEGRDADDVVMMASSTNEELEELKKLKEKKKQLENKLEILKQK
chain 6: MMASTSNDEEKLISTTDKYFIEQRNIVLQEINETMNSILNGLNGLNISLESSIAVGREFQSVSDLWKTLYDGLESLSDEAPIDEQPTLSQSKTK
chain 7: MDSIDEQIAIKRKELQSLQKITSLTDGLKIQLTELNEQIKEMGMNADSVAQLMNNWDSIINNISQASLGLLQYAEGDYEIGPWKDSKKKESEQSNETGLEAQENDKNDEDNDEDEDLVPLPETMVRIRVDGNE
chain 8: MEHNLSPLQQEVLDKYKQLSLDLKALDETIKELNYSQHRQQHSQQETVSPDEILQEMRDIEVKIGLVGTLLKGSVYSLILQRKQEQESLGSNSK
chain 9: MENPHEQVQANILSRIIGNVKRLNESVAILNQELVTINNRNKNLEIMGAICDNYHSSVQFNLEATNNKKPPL
chain 10: MNANKQRQYNQLAHELRELQTNLQETTKQLDIMSKQCNENLVGQLGKVHGSWLIGSYIYYMEQMLGKTQ
B2: MBP–Spc34 complex (complex, S. cerevisiae)
chain 1: MSEDKAKLGTTRSATEYRLSIGSAPTSRRSSMGESSSLMKFADQEGLTSSVGEYNENTIQQLLLPKIRELSDSIITLDSNFTRLNFIHESLADLNESLGSLLYGIMSNSWCVEFSQAPHDIQDDLIAIKQLKSLEDEKNNLVMELSNMERGIKRKKDEQGENDLAKASQNKQFNQPLFPSSQVRKYRSYDNRDKRKPSKIGNNLQVENEEDYEDDTSSEASFVLNPTNIGMSKSSQGHVTKTTRLNNNTNSKLRRKSILHTIRNSIASGADLPIENDNVVNLGDLHPNNRISLGSGAARVVNGPVTKNRNSMFSGRAERKPTESRHSVAKKTEKKINTRPPFR
chain 2: MSEQSQLDDSTIDKLIPQIFNEMRSNLNNTTNKFPKSTGGGASDNISANSNSIRSFNSITTQSLLKESESLDKITAMIKNVTAALKNNLPVYVNQVHEVCKSTNSILDSWINIHSQAGYIHKLMSDQTYLKLINDRLHNENVNTNDEDGSTLHNVIALKKKEILDLRQKLENRKGEKDAAPAKPPNQGLNPRYGVQSGRRPVPSAGISNNGRVRKTHVPASKRPSGIPRVTNRWTKPTASSSRKMFR
chain 3: MDSASKEETLEKLDQEITVNLQKIDSNLSFCFHKITQDIIPHVATYSEICERIMDSTEWLGTMFQETGLVNLQANAAAPVGNAPVKSLVSNNVGIFPTSAEEASRQSQTDNGPNEADSAVHVNRDVHSMFNNDSIDDFHTANITSTGQILKLPDSSDEDTGSEAVPSREQTDLTGEGHGGADDEQDESTIQRQSRKRKISLLLQQQYGSSSSMVPSPIVPNKMRKQLAHEEHINNDGDNDDENSNNIESSPLKQGHHHPKGQADDNNEGPDEEESTKEVPKPGTIIHFSTNR
chain 4: MGESLDRCIDDINRAVDSMSTLYFKPPGIFHNAILQGASNKASIRKDITRLIKDCNHDEAYLLFKVNPEKQSVSRRDGKEGVFDYVIKRDTDMKRNRRLGRPGEKPIIHVPKEVYLNKDRLDLNNKRRRTATTSGGGLNGFIFDTDLIGSSVISNSSSGTFKALSAVFKDDPQIQRLLYALENGSVLMEEESNNQRRKTIFVEDFPTDLILKVMAEVTDLWPLTEFKQDYDQLYHNYEQLSSKLRFIKKEVLLQDDRLKTMSQYHPSSSHDVAKIIRKEKDEIRRLEMEIANLQE
chain 5: MTDALEQSVLALEGTVSVLKDSVESLKCANEPSTNLASTMLQTKRVFRLVPEYDVERSKLDLIEEVEPLVRTLGDKLRKSMGRMQRELDTLQQTYELNDLRLKKNISMDDDDALNSPDMGQEYEGRDADDVVMMASSTNEELEELKKLKEKKKQLENKLEILKQK
chain 6: MMASTSNDEEKLISTTDKYFIEQRNIVLQEINETMNSILNGLNGLNISLESSIAVGREFQSVSDLWKTLYDGLESLSDEAPIDEQPTLSQSKTK
chain 7: MDSIDEQIAIKRKELQSLQKITSLTDGLKIQLTELNEQIKEMGMNADSVAQLMNNWDSIINNISQASLGLLQYAEGDYEIGPWKDSKKKESEQSNETGLEAQENDKNDEDNDEDEDLVPLPETMVRIRVDGNE
chain 8: MEHNLSPLQQEVLDKYKQLSLDLKALDETIKELNYSQHRQQHSQQETVSPDEILQEMRDIEVKIGLVGTLLKGSVYSLILQRKQEQESLGSNSK
chain 9: MENPHEQVQANILSRIIGNVKRLNESVAILNQELVTINNRNKNLEIMGAICDNYHSSVQFNLEATNNKKPPL
chain 10: MNANKQRQYNQLAHELRELQTNLQETTKQLDIMSKQCNENLVGQLGKVHGSWLIGSYIYYMEQMLGKTQ
B3: MBP–Spc19 complex (complex, S. cerevisiae)
chain 1: MSEDKAKLGTTRSATEYRLSIGSAPTSRRSSMGESSSLMKFADQEGLTSSVGEYNENTIQQLLLPKIRELSDSIITLDSNFTRLNFIHESLADLNESLGSLLYGIMSNSWCVEFSQAPHDIQDDLIAIKQLKSLEDEKNNLVMELSNMERGIKRKKDEQGENDLAKASQNKQFNQPLFPSSQVRKYRSYDNRDKRKPSKIGNNLQVENEEDYEDDTSSEASFVLNPTNIGMSKSSQGHVTKTTRLNNNTNSKLRRKSILHTIRNSIASGADLPIENDNVVNLGDLHPNNRISLGSGAARVVNGPVTKNRNSMFSGRAERKPTESRHSVAKKTEKKINTRPPFR
chain 2: MSEQSQLDDSTIDKLIPQIFNEMRSNLNNTTNKFPKSTGGGASDNISANSNSIRSFNSITTQSLLKESESLDKITAMIKNVTAALKNNLPVYVNQVHEVCKSTNSILDSWINIHSQAGYIHKLMSDQTYLKLINDRLHNENVNTNDEDGSTLHNVIALKKKEILDLRQKLENRKGEKDAAPAKPPNQGLNPRYGVQSGRRPVPSAGISNNGRVRKTHVPASKRPSGIPRVTNRWTKPTASSSRKMFR
chain 3: MDSASKEETLEKLDQEITVNLQKIDSNLSFCFHKITQDIIPHVATYSEICERIMDSTEWLGTMFQETGLVNLQANAAAPVGNAPVKSLVSNNVGIFPTSAEEASRQSQTDNGPNEADSAVHVNRDVHSMFNNDSIDDFHTANITSTGQILKLPDSSDEDTGSEAVPSREQTDLTGEGHGGADDEQDESTIQRQSRKRKISLLLQQQYGSSSSMVPSPIVPNKMRKQLAHEEHINNDGDNDDENSNNIESSPLKQGHHHPKGQADDNNEGPDEEESTKEVPKPGTIIHFSTNR
chain 4: MGESLDRCIDDINRAVDSMSTLYFKPPGIFHNAILQGASNKASIRKDITRLIKDCNHDEAYLLFKVNPEKQSVSRRDGKEGVFDYVIKRDTDMKRNRRLGRPGEKPIIHVPKEVYLNKDRLDLNNKRRRTATTSGGGLNGFIFDTDLIGSSVISNSSSGTFKALSAVFKDDPQIQRLLYALENGSVLMEEESNNQRRKTIFVEDFPTDLILKVMAEVTDLWPLTEFKQDYDQLYHNYEQLSSKLRFIKKEVLLQDDRLKTMSQYHPSSSHDVAKIIRKEKDEIRRLEMEIANLQE
chain 5: MTDALEQSVLALEGTVSVLKDSVESLKCANEPSTNLASTMLQTKRVFRLVPEYDVERSKLDLIEEVEPLVRTLGDKLRKSMGRMQRELDTLQQTYELNDLRLKKNISMDDDDALNSPDMGQEYEGRDADDVVMMASSTNEELEELKKLKEKKKQLENKLEILKQK
chain 6: MMASTSNDEEKLISTTDKYFIEQRNIVLQEINETMNSILNGLNGLNISLESSIAVGREFQSVSDLWKTLYDGLESLSDEAPIDEQPTLSQSKTK
chain 7: MDSIDEQIAIKRKELQSLQKITSLTDGLKIQLTELNEQIKEMGMNADSVAQLMNNWDSIINNISQASLGLLQYAEGDYEIGPWKDSKKKESEQSNETGLEAQENDKNDEDNDEDEDLVPLPETMVRIRVDGNE
chain 8: MEHNLSPLQQEVLDKYKQLSLDLKALDETIKELNYSQHRQQHSQQETVSPDEILQEMRDIEVKIGLVGTLLKGSVYSLILQRKQEQESLGSNSK
chain 9: MENPHEQVQANILSRIIGNVKRLNESVAILNQELVTINNRNKNLEIMGAICDNYHSSVQFNLEATNNKKPPL
chain 10: MNANKQRQYNQLAHELRELQTNLQETTKQLDIMSKQCNENLVGQLGKVHGSWLIGSYIYYMEQMLGKTQ

Molecular target: the molecule itself
Experiment: negative-stain EM with 2D class averages

Stoichiometry N, 2:
B1, B2, B3
